This is an account of results in US12060424 (AMUNIX PHARMACEUTICALS, dated 2024).

By Kd is commonly meant the equilibrium constant for the complex coming apart. In general, EC50 refers to the concentration needed to bring the measured effect to its halfway point.

Assay [1] concerns the target T1, Fc-tagged EpCAM (R&D Systems, cat #960-EP-050), human, coupled to SPR chip (human, UniProt P16422 24-265).
T1 construct: Bought reagent; also called human EpCAM; EpCAM chip; not shown: Fc tag of the bought reagent
T1 sequence (looked up): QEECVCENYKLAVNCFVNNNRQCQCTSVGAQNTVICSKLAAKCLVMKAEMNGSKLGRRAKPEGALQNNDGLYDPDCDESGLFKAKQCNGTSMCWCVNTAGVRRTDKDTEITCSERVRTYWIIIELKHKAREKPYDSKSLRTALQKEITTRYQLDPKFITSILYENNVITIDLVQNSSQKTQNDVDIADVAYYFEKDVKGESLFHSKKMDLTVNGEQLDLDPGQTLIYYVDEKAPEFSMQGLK
The experiment in a line: SPR (Biacore 3000), Fc-tagged EpCAM coupled to chip, ProTIA as analyte at 5-6 concentrations. On the technique in general: SPR reads the build-up and loss of mass on a sensor chip optically.

For assay [2], the target named is T2, human EpCAM expressed on cells (CHO cells stably transfected with human EpCAM); EpCAM-positive human tumor … (human, UniProt P16422 24-314).
T2 construct: whole, on cells; also called EpCAM-CHO; hEp-CHO 4-12B
T2 sequence (looked up): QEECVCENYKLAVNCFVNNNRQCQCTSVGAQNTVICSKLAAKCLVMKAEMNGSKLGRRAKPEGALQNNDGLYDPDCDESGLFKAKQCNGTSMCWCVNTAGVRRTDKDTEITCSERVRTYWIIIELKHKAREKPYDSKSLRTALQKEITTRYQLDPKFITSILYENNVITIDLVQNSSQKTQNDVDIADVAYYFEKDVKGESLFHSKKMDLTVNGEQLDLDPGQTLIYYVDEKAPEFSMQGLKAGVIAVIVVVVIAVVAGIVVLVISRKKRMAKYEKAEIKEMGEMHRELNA
The experiment in a line: competition flow cytometry on EpCAM-CHO cells. Background: In flow cytometry, cells or beads pass a laser one at a time.

The target of assay [3] is T3, recombinant human EpCAM (rhEpCAM), coated on ELISA plate (human, UniProt P16422 24-265).
T3 construct: Bought reagent
T3 sequence (looked up): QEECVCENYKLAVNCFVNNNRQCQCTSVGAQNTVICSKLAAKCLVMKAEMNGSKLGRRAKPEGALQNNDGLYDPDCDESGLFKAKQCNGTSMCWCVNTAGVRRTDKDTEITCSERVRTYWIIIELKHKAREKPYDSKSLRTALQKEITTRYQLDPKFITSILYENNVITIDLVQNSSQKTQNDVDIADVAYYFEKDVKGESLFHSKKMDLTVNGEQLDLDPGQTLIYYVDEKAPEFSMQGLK
The experiment in a line: sandwich ELISA: rhEpCAM coated, biotin-conjugated protein L detection.

For assay [4], the target named is T1, Fc-tagged EpCAM (R&D Systems, cat …). Nature of the assay: SPR.
The target of assay [5] is T4, human CD3 on cells (CD3+ Jurkat cells; purified human CD3 positive T cells) (human, UniProt P07766 23-207).
T4 construct: whole, on cells; CD3 is a multi-subunit complex
Nature of the assay: competition flow cytometry on CD3+ Jurkat cells.

The target in assay [6] is recombinant human CD3 epsilon & delta (rhCD3ε & δ), Creative BioMart cat #CD3E&CD3D-219H (human) (UniProt P07766). Nature of the assay: sandwich ELISA: rhCD3ε & δ coated, peroxidase-conjugated protein L detection. On the technique in general: In an ELISA, binding on a coated surface is turned into a signal by an enzyme label.
The target in assay [7] is T5, recombinant human HER2 (AcroBiosystems cat #HE2-H525), coated on ELISA plate (human, UniProt P04626 23-652).
T5 construct: also called HER2 antigen
The experiment in a line: sandwich ELISA: recombinant human HER2 coated, biotin-conjugated protein L detection.

In assay [8] the target is T6, recombinant human CEA (Abcam cat #ab742), coated on ELISA plate (human, UniProt P06731 35-685, limits assumed).
T6 construct: also called CEA antigen
T6 sequence (looked up): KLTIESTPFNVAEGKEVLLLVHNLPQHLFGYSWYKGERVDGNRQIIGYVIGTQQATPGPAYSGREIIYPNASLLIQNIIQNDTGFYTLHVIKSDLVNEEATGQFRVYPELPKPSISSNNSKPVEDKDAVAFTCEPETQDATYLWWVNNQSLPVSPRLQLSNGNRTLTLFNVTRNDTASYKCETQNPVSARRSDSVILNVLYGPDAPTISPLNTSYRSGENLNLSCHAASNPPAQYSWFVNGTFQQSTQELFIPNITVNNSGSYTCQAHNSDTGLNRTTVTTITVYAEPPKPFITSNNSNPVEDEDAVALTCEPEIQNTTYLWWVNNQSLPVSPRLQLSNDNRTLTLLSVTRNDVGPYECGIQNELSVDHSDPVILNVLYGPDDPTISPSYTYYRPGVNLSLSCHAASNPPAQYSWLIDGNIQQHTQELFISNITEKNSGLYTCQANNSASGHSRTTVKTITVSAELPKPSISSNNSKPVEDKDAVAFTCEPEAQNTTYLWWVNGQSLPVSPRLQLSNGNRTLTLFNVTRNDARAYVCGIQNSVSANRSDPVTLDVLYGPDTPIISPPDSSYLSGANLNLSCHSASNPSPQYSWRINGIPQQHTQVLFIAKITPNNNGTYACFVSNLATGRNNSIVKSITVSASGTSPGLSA
The experiment in a line: sandwich ELISA: recombinant human CEA coated, biotin-conjugated protein L detection.

In assay [9] the target is T3, recombinant human EpCAM (rhEpCAM), …. Nature of the assay: sandwich ELISA: rhEpCAM coated, peroxidase-conjugated protein L detection.
The target in assay [10] is recombinant human CD3 epsilon & delta (rhCD3ε & δ), Creative BioMart cat #CD3E&CD3D-219H (human) (UniProt P07766). Nature of the assay: SPR (Biacore 3000), His-tagged CD3εδ coupled to chip, ProTIA as analyte at 5-6 concentrations.
For assay [11] the target is unchanged. Nature of the assay: SPR.
The target of assay [12] is T4, human CD3 on cells (CD3+ Jurkat cells; …). The experiment in a line: cell-based or functional assay.

T4 sequence (P07766 23-207): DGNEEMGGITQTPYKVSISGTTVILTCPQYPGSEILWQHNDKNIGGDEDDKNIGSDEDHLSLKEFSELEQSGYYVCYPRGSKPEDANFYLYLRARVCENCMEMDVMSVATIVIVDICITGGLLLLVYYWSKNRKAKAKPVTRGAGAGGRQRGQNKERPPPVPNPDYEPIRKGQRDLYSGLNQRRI
Chain of recombinant human CD3 epsilon & delta (rhCD3ε & δ), Creative BioMart cat #CD3E&CD3D-219H (human) (P07766 23-126, stated change not applied, chain 1 of 2): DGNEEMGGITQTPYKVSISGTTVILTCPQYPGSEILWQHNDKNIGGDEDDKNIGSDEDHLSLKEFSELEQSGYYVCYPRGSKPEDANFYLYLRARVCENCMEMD
Chain of recombinant human CD3 epsilon & delta (rhCD3ε & δ), Creative BioMart cat #CD3E&CD3D-219H (human) (P04234 22-105, stated change not applied, chain 2 of 2, further chain): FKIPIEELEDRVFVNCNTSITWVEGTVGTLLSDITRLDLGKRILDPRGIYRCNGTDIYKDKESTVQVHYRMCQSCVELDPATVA

B1: protease-treated (MMP-9 cleaved) AC1476 anti-EpCAM×anti-CD3 ProTIA (bispecific antibody)
chain: DIQMTQSPSSLSASVGDRVTITCRSTKSLLHSNGITYLYWYQQKPGKAPKLLIYQMSNLASGVPSRFSSSGSGTDFTLTISSLQPEDFATYYCAQNLEIPRTFGQGTKVEIKGATPPETGAETESPGETTGGSAESEPPGEGQVQLVQSGPGLVQPGGSVRISCAASGYTFTNYGMNWVKQAPGKGLEWMGWINTYTGESTYADSFKGRFTFSLDTSASAAYLQINSLRAEDTAVYYCARFAIKGDYWGQGTLLTVSSGGGGSDIQMTQSPSSLSASVGDRVTITCRASQDIRNYLNWYQQKPGKAPKLLIYYTSRLESGVPSRFSGSGSGTDYTLTISSLQPEDFATYYCQQGNTLPWTFGQGTKVEIKGATPPETGAETESPGETTGGSAESEPPGEGEVQLVESGGGLVQPGGSLRLSCAASGYSFTGYTMNWVRQAPGKGLEWVALINPYKGVSTYNQKFKDRFTISVDKSKNTAYLQMNSLRAEDTAVYYCARSGYYGDSDWYFDVWGQGTLVTVSSGTAEAASASGLSGRSDNHSPLG
notes: mass 58,071 Da); also called MMP-9 treated AC1476; MMP-9 treated AC1516
On to B1, for which the dissociation constant (Kd) came to 1.15 nM in [1] and 2.22 nM in assay [10]. Besides, the “fold stronger binding affinity than untreated and non-cleavable ProTIA” value was ~10 fold in assay [2], ~10 fold in assay [4], ~30 fold in assay [5] and 10 fold in assay [11]. For the same molecule, the values for the EC50 in [3], in assay [6] and in assay [9] were 0.11 nM, 0.31 nM and 0.12 nM, respectively. Besides, the binding result in assay [7] and in assay [8] was “no binding” each time. Besides, the “EC50, LDH release cytotoxicity, purified human CD3 positive T cells with OVCAR-3 cells 5:1” value in assay [12] is 0.3 pM. For the same molecule, the “EC50, LDH release cytotoxicity, purified human CD3 positive T cells with SK-OV-3 cells 5:1” value in assay [12] turned out to be 2.4 pM.
